Literature values, collected in publication PMC10648573.
Read-outs that look alike come from different tables or passages of the source.

Columns and labels:
[1] = target: NGALR 1-105 (Homo sapiens) (UniProt Q8WUG5)
[2] = target: megalin (Homo sapiens) (UniProt P98164)
[3] = target: 24p3R (Homo sapiens) (UniProt Q8WUG5)
[4] = target: NGALR 1-105 (Homo sapiens) (UniProt Q8WUG5); remark: listed apart in the source

Sequence of UniProt P98164 (P98164 26-4423): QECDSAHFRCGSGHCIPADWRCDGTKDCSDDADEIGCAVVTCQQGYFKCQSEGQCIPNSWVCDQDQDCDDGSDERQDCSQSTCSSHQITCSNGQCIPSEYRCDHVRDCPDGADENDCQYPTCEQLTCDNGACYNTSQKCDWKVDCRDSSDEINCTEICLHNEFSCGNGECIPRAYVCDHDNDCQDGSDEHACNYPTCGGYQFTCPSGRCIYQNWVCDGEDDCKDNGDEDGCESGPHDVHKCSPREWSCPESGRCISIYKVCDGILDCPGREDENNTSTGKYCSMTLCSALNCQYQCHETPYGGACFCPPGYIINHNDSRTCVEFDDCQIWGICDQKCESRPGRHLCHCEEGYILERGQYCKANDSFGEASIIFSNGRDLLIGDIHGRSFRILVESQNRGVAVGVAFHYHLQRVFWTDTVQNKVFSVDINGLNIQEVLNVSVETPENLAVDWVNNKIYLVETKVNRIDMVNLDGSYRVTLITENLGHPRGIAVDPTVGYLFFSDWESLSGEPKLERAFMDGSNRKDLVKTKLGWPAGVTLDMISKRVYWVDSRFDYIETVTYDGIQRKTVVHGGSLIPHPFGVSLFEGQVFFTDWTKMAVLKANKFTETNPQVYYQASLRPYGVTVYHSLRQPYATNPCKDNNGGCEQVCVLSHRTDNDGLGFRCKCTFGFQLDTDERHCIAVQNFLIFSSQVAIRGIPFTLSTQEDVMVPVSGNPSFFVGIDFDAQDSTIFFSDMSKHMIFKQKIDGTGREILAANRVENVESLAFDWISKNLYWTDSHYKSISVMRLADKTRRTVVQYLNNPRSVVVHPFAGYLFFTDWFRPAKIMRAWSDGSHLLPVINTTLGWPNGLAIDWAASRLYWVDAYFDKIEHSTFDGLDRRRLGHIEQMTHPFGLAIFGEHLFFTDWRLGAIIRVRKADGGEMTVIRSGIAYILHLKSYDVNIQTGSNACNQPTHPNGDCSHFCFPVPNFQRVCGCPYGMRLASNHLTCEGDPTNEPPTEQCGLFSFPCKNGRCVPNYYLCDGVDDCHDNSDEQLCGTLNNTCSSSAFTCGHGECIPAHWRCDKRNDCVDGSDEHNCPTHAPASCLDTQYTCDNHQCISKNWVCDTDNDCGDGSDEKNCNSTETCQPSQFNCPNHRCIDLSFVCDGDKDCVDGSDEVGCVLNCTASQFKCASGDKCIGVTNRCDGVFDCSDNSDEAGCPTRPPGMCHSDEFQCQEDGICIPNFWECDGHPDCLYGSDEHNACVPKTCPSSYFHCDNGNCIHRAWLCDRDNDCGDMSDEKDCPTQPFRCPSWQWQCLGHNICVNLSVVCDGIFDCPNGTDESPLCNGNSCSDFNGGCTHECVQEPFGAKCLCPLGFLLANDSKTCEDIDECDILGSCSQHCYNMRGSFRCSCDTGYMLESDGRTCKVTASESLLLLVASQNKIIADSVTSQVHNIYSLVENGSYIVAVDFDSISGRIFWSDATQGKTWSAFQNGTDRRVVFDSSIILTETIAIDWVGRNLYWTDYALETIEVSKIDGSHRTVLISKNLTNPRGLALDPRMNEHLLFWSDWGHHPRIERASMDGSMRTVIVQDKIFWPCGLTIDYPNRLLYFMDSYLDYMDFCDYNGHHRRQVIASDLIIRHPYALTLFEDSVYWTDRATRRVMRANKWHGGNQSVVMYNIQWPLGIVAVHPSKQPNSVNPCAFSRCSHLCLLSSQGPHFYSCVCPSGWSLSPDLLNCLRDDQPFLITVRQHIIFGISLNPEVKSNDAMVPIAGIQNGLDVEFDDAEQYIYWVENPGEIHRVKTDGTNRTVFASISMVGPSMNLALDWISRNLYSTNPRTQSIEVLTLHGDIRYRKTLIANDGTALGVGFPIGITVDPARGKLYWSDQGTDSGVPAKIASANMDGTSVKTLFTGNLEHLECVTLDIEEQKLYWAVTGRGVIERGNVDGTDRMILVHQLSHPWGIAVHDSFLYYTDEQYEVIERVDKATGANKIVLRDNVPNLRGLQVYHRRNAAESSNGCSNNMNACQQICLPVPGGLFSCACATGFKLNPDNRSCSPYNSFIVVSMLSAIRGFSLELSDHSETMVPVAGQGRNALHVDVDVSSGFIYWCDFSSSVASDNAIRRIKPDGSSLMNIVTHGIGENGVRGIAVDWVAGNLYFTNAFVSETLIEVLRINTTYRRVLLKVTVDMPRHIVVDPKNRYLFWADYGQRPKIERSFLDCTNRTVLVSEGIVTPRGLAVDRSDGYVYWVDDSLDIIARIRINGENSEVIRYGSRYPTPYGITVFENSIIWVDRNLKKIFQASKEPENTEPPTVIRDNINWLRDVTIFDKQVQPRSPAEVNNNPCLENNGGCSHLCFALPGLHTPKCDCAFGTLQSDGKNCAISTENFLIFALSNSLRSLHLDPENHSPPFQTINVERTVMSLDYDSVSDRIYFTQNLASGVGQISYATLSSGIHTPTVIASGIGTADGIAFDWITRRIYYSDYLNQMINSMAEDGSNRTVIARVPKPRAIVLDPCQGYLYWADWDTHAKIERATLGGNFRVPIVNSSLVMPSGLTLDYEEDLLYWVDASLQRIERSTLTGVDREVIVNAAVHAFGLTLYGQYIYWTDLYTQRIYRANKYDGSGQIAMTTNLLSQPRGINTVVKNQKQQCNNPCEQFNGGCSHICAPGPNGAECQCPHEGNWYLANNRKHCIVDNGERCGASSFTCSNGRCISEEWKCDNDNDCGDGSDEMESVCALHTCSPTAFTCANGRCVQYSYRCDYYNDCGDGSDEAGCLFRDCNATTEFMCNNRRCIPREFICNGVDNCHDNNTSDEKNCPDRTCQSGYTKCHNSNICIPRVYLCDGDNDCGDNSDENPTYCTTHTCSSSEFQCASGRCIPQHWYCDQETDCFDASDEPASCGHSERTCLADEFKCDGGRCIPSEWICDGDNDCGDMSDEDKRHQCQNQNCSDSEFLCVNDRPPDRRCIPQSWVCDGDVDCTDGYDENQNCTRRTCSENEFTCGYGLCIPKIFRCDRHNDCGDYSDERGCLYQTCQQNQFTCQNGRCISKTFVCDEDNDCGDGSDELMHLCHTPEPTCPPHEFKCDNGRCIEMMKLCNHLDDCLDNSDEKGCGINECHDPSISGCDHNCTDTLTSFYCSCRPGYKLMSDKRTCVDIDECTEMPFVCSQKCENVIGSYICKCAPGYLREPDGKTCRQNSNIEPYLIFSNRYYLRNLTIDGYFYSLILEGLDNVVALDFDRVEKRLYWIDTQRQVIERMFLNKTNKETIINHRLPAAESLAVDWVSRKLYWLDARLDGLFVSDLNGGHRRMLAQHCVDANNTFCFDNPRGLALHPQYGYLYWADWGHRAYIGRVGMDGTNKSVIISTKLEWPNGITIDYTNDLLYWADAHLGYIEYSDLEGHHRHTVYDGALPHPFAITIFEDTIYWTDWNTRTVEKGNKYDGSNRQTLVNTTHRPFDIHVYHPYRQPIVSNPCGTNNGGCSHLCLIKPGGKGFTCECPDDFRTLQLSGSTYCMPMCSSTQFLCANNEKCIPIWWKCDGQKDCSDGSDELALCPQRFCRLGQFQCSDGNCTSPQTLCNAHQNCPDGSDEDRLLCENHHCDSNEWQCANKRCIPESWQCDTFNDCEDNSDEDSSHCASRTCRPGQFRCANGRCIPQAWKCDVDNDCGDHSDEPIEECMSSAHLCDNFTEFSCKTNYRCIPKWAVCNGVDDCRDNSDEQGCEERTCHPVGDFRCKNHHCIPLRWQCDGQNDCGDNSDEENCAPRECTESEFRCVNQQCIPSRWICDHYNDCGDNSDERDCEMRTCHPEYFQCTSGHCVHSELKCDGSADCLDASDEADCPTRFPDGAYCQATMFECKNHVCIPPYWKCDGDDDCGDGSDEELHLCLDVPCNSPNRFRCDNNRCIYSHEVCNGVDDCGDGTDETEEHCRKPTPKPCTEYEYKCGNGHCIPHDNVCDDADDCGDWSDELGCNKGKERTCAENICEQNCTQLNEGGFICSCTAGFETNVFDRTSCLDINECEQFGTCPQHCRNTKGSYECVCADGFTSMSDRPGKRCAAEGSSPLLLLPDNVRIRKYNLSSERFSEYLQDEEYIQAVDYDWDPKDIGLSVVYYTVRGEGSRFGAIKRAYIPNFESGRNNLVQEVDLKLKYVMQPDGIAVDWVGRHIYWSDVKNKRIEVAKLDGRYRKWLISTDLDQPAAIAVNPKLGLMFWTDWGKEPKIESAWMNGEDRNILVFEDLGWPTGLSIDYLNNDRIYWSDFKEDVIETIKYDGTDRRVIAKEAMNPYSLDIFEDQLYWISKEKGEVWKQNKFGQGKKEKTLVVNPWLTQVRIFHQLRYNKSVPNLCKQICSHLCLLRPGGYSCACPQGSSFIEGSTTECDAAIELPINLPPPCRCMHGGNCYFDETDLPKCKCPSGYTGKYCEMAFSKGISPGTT

| Kd [1] [µM] | Kd [2] [µM] | Kd [3] [nM] | Kd [4] [µM] | Substance |
| --- | --- | --- | --- | --- |
| 20 | 0.06 | 0.092 |  | Lipocalin-2 (from UniProt P80188) |
|  |  |  | 8.5 | Lipocalin-2 (apo) (from UniProt P80188) |
